Test [1] deals with human CXCR1 on transfected L1.2 cells (human) (UniProt P25024).
Test [2] has as its target CXCL8 (6-77), produced in-house (human). The test can be described thus: SEC-MALS; CXCL8 at 4.2 mg/ml (0.5 mM), Superdex 75 10/300 GL, 20 mM Na phosphate pH 6.5, 100 mM NaCl, room temperature; a single species.

Chain of human CXCR1 on transfected L1.2 cells (human) (P25024 whole entry): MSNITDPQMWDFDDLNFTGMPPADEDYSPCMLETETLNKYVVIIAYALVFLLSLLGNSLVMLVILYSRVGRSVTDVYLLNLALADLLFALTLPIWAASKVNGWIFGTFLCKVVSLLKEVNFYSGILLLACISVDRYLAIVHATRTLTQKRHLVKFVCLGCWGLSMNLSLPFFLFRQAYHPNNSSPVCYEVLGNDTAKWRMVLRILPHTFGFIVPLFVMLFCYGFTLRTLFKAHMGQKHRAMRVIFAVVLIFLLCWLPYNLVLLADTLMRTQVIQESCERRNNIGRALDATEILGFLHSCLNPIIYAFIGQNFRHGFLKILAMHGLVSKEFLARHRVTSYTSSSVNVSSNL

For orientation: stoichiometry N means a count of units in the complex or per binding partner. Regarding “CXCL8 (6-77), produced in-house (ligand)”, the chemotaxis of CXCR1-transfected L1.2 cells (modified Boyden chamber, 5 h), serial dilutions of CXCL8, bell-shaped response; percentage of cells migrated at the optimal concentration in test [1] was determined as 20%. The same substance returned a stoichiometry N in test [2] of 2.
For “Recombinant CXCL8 (6-77), commercially available (ligand)”, the chemotaxis of CXCR1-transfected L1.2 cells (modified Boyden chamber, 5 h), serial dilutions of CXCL8, bell-shaped response; percentage of cells migrated at the optimal concentration in test [1] was 20%.

Values taken from publication PMC8519433.
